{
  "source": "patent US12024544B2",
  "about": "“CCN3 and CCN3 peptides and analogs thereof for therapeutic use” (Rosalind Franklin University of Medicine & Science, priority 2010, dated 2024)",
  "molecules": {"B1": {"name": "CCN3: full-length recombinant human CCN3 protein (SEQ. ID. No. 67), commercial (Pepro Tech) or made in HEK-293 (protein)", "chain": "MQVAATQRCPPQCPGRCPATPPTCAPGVRAVLDGCSCCLVCARQRGESCSDLEPCDESSGLYCDRSADPSNQTGICTAVEGDNCVFDGVIYRSGEKFQPSCKFQCTCRDGQIGCVPRCQLDVLLPEPNCPAPRKVEVPGECCEKWICGPDEEDSLGGLTLAAYRPEATLGVEVSDSSVNCIEQTTEWTACSKSCGMGFSTRVTNRNRQCEMLKQTRLCMVRPCEQEPEQPTDKKGKKCLRTKKSLKAIHLQFKNCTSLHTYKPRFCGVCSDGRCCTPHNTKTIQAEFQCSPGQIVKKPVMVIGTCTCHTNCPKNNEAFLQELELKTTRGKM"}},
  "key": {"human skin fibroblasts": {"test_system": "human skin fibroblasts", "test": "human skin fibroblast proliferation", "type": "cell-based", "text": "(§1) To test this we used a cell culture model of skin healing/scarring, which employed the use of primary human skin fibroblasts derived from foreskins collected post circumcision. These have been used extensively in the past to grown in culture and treated with agents that are known to drive wound healing and or scarring. We were also interested in a rare form of skin fibrosis/scarring that can lead to systemic disease and death known as nephrogenic systemic fibrosis (NSF). NSF is a complication of NMR diagnostics in renal impaired patients, where gadolinium (GAD), a heavy metal, is used as a contrast agent, but in some cases appears to deposit in skin. Although the mechanism for development of skin fibrosis and subsequent systemic disease is not yet completely understood, we have developed a model that has allowed elucidation of the probable pathway to skin fibrosis (Bhagavathula, N., M. K. Dame, M. DaSilva, W. Jenkins, M. N. Aslam, P. Perone and J. Varani (2010)). “Fibroblast response to gadolinium: role for platelet-derived growth factor receptor.” Invest Radiol 45(12): 769-777). This disease is characterized as a hyperproliferative disease, and in our model it was shown that PDGF produced by resident skin fibroblasts are stimulated by GAD to increase their production of PDGF which acts to induce proliferation and the increased production of MMPs, regulators of ECM breakdown and thus turnover, including the major MMP, MMP-1. At the same time tissue inhibitors of MMPs (TIMPs) are also affected by exposure to GAD. […] It appears that local fibroblasts then respond to this increased TGF-beta by increasing their production of ECM, including predominantly collagen type 1.\n(§2) We examined the role of CCN3 and CCNp in fibroproliferative/fibrotic responses in human dermal fibroblasts exposed to Omniscan, one of the gadolinium-based contrast agents associated with development of nephrogenic systemic fibrosis. These studies were carried out as we have previously described (Riser, B. L., N. Bhagavathula, P. Perone, K. Garchow, Y. Xu, G. J. Fisher, F. Najmabadi, D. Attili and J. Varani (2012)). “Gadolinium-induced fibrosis is counter-regulated by CCN3 in human dermal fibroblasts: a model for potential treatment of nephrogenic systemic fibrosis.” J Cell Commun Signal 6(2): 97-105.). In our studies, human dermal fibroblasts were exposed to Omniscan; or to PDGF and TGF-β1 as controls. Cellular proliferation was assessed along with MMP-1 (by ELISA and gelatin zymography), TIMP-1 (by ELISA) and COL1 (by ELISA) in the absence and presence of CCN3 and CCNp. CCN3 and CCNp38 was added to cells at 10 nM concentration and at the same time as PDGF. In parallel, CCN3 production was assessed in control and Omniscan-treated cells. In most case the results shown (each bar) are the mean of 3-5 separate experiments, using fibroblasts from different donors. CCN3 was produced in our laboratory from the human embryonic kidney cell line (HEK-293) transfected with the complete human CCN3 gene, and producing an approximate 55 kDa, full-length CCN3 product. A second source of CCN3 was obtained from Pepro Tech Corporation (Rocky Hill, NJ) and is produced in a prokaryote cell line.\nNext we created and tested for efficacy, additional CCNp including those with the cysteines intact (native sequence) from CCNp37 and CCNp38 and those that were modified by either shortening the peptide by 1 or 2 amino acids or lengthening by one amino acid. These agents were added to human skin fibroblasts in increasing concentrations from 1 nM to 100 nM and compared to the equal concentration of CCN3 (SEQ. ID. NO: 67). They were added just prior to the addition of either TGF-beta or PDGF, depending on the experiment."}, "TIMP-1": {"test_system": "TIMP-1", "test": "TIMP-1 production by human skin fibroblasts", "type": "cell-based", "text": "as §1, §2\nNext we created and tested for efficacy, additional CCNp including those with the cysteines intact (native sequence) from CCNp37 and CCNp38 and those that were modified by either shortening the peptide by 1 or 2 amino acids or lengthening by one amino acid. […]"}, "pro-collagen type 1": {"test_system": "pro-collagen type 1", "test": "pro-collagen type 1 production by human skin fibroblasts", "type": "cell-based", "details": "TGF-beta, 10 nM, FIG. 21", "text": "To test this we used a cell culture model of skin healing/scarring, which employed the use of primary human skin fibroblasts derived from foreskins collected post circumcision. These have been used extensively in the past to grown in culture and treated with agents that are known to drive wound healing and or scarring. We were also interested in a rare form of skin fibrosis/scarring that can lead to systemic disease and death known as nephrogenic systemic fibrosis (NSF). NSF is a complication of NMR diagnostics in renal impaired patients, where gadolinium (GAD), a heavy metal, is used as a contrast agent, but in some cases appears to deposit in skin. Although the mechanism for development of skin fibrosis and subsequent systemic disease is not yet completely understood, we have developed a model that has allowed elucidation of the probable pathway to skin fibrosis (Bhagavathula, N., M. K. Dame, M. DaSilva, W. Jenkins, M. N. Aslam, P. Perone and J. Varani (2010)). “Fibroblast response to gadolinium: role for platelet-derived growth factor receptor.” Invest Radiol 45(12): 769-777). This disease is characterized as a hyperproliferative disease, and in our model it was shown that PDGF produced by resident skin fibroblasts are stimulated by GAD to increase their production of PDGF which acts to induce proliferation and the increased production of MMPs, regulators of ECM breakdown and thus turnover, including the major MMP, MMP-1. At the same time tissue inhibitors of MMPs (TIMPs) are also affected by exposure to GAD. […]\nWe examined the role of CCN3 and CCNp in fibroproliferative/fibrotic responses in human dermal fibroblasts exposed to Omniscan, one of the gadolinium-based contrast agents associated with development of nephrogenic systemic fibrosis. […] Cellular proliferation was assessed along with MMP-1 (by ELISA and gelatin zymography), TIMP-1 (by ELISA) and COL1 (by ELISA) in the absence and presence of CCN3 and CCNp. […] In parallel, CCN3 production was assessed in control and Omniscan-treated cells. […]"}, "CCN2 receptor": {"test_system": "CCN2 receptor", "test": "adhesion of mesangial cells to CCN2 coated plates", "type": "cell-based, rat", "details": "27 nM, rodent mesangial cells", "text": "The peptides selected above, and shown in FIG. 5, were synthesized and tested in the three different in vitro assays constructed to model fibrosis, or fibrosis-related pathology in vivo for anti-fibrotic activity. These assays have been used extensively by us and by others, and are highly predictive of related responses in vivo, including those occurring in humans. One in vitro assay, i.e., of cell adhesion in vitro was used. There is a requirement for adhesion in wound healing and fibrosis, with cells responding to the binding of CCN2 to their receptors for other critical activities. Also alteration of cell attachment and receptor binding is implicated in other non-fibrotic diseases, previously named in this application. For this adhesion assay, a well of a culture plate was coated with CCN2 protein and then rat mesangial cells were added for a defined period. […] After a standard period of incubation, the cells are washed to remove non-attached cells. These adherent cells are then removed and counted to determine the percent of the total cells that adhered. The ability of each peptide to block this binding was examined by preincubating cells with the peptide of interest. Controls were used for comparison without CCN2 coating."}},
  "note": "“Also recorded” adds a separate entry of the source.",
  "data": [
    {"molecule": "B1", "values": [
      {"measurement": "inhibition of PDGF-stimulated proliferation, comparison of modifications", "setting": "human skin fibroblasts; 1 nM to 100 nM, FIGS. 22-24", "value": "dose-dependent efficacy"},
      {"measurement": "reduction in PDGF-stimulated proliferation", "setting": "human skin fibroblasts; 1 nM, FIG. 22", "value": "slightly decreased proliferation"},
      {"measurement": "reduction in PDGF-stimulated proliferation", "setting": "human skin fibroblasts; 10 nM, FIG. 23", "value": 33, "unit": "%"},
      {"measurement": "reduction in PDGF-stimulated proliferation", "setting": "human skin fibroblasts; 100 nM, FIG. 24", "value": 46, "unit": "%"},
      {"measurement": "block of PDGF-stimulated fibroblast proliferation", "setting": "human skin fibroblasts; PDGF, 10 nM, FIG. 15", "value": "this stimulation is blocked"},
      {"measurement": "effect on baseline cell growth", "setting": "human skin fibroblasts; TGF-beta (does not stimulate proliferation), FIG. 16", "value": "neither CCN3 (SEQ. ID. No. 67) nor CCNp38-3 (Seq. ID. No. 56) has an effect on baseline cell growth"},
      {"measurement": "block of PDGF stimulated TIMP-1 production", "setting": "TIMP-1; FIGS. 28-30", "value": "unable to block the increase in TIMP-1"},
      {"measurement": "block of PDGF-induced increase in TIMP-1 production", "setting": "TIMP-1; PDGF, 10 nM, FIG. 19", "value": "neither CCNp38-3 (Seq. ID. No. 56) nor CCN3 (SEQ. ID. No. 67) is able to block or reduce the increase in TIMP-1 production"},
      {"measurement": "effect on TIMP-1 production with TGF-beta", "setting": "TIMP-1; TGF-beta (fails to stimulate), FIG. 20", "value": "neither CCNp38-3 nor CCN3 have an effect; also recorded: neither CCNp38-3 or CCN3 have an effect"},
      {"measurement": "block of TGF-beta-induced increase in pro-collagen production", "setting": "pro-collagen type 1", "value": "completely block the increase"},
      {"measurement": "inhibition of cellular adhesion to CCN2 coated plates", "setting": "CCN2 receptor", "value": "some inhibition"}
    ]}
  ]
}
